Experimental data as given in patent US20230391828A1, “REGULATORS OF CELL DIVISION” (TECHNISCHE UNIVERSITÄT DRESDEN, priority 2020, published 2023).
Bridge positions count the residues as written; N and C are the ends. Square brackets hold non-standard residues; d marks the D form. Pra = C#CC[C@H](N)C(=O)O

How the values were obtained:
APC/C (APC11) = biological target: T1, APC/C (APC11) (Homo sapiens, UniProt Q9NYG5); test: Pull-down binding assay in HeLa K cell extract, APC/C; settings: Pra peptide clicked to azide agarose or magnetic beads, Western blot
T1 construct: endogenous in cells; host or cells: HeLa K cell extract
Description: (§1) For the protein transfer, the 0.45 μm Immobilon-FL PVDF membrane (Merck Millipore) was used. The membrane was activated in ethanol and then transferred to the Blotting buffer (50 mM SDS-MOPS, 50 mM Tris base, 0.1% SDS, 1 mM EDTA, 20% EtOH). The proteins were transferred using a wet transfer for 1.5 h at 400 mA. Subsequently, the membrane was incubated with the blocking solution, 10% milk in PBS-T (0.02% Tween-20 in PBS), for 1 h at room temperature. To detect proteins of the interest, the membrane was incubated with primary antibodies overnight at 4° C. Followed by washing the membrane 3 times 10 min with PBS-T and incubation with IRDye fluorescently labelled secondary antibodies for 1 h. Prior detection, the membrane was twice washed with PBS-T for 10 min and once with PBS for 10 min. The detection was done using the quantitative near-infrared scanning system Odyssey (LI-COR Biosciences).
HeLa K cell pellet was re-suspended in the extraction buffer (30 mM HEPES pH 7.5, 175 mM NaCl, 2.5 mM MgCl2, 0.25% NP40, 10% glycerol, 1 mM DTT) supplemented with 10 μM MG132 (VWR), 1 mM PMSF (Sigma-Aldrich), complete protease inhibitor cocktail (Roche) and PhosSTOP phosphatase inhibitors (Roche) and incubated for 20 min on ice, followed by centrifugation of cell debris for 15 min at 4° C. 16 100 g. In mean time, inhibitor molecules containing Propargyl (Pra) chemical group were covalently attached to the azide agarose or azide magnetic resin (Jena Bioscience) by Cu(I)-catalysed azide-alkyne cycloaddition reaction. Specifically, the inhibitor molecules were mixed with azide agarose resin in ratio 0.125 μmol inhibitor/25 μl agarose resin and azide magnetic resin in ratio 0.018 μmol inhibitor/20 μl magnetic resin. The reaction was catalysed by 1 mM CuSO4, 0.1 mM TBTA (Sigma-Aldrich) and 1 mM Sodium ascorbate and was performed on the rotating wheel for 30 min at room temperature in the volume of 1 ml. Subsequently, the resin was washed 5 times with the extraction buffer. The inhibitor-agarose resin was added to 1 mg of HeLa K cell extract and the inhibitor-magnetic resin was added to 0.5 mg of HeLa K cell extract followed by incubation at 4° C. for 2 h. Followed by washing the resin 5 times with the extraction buffer. Pull-down proteins were eluted by boiling for 15 min with 1×LDS sample buffer supplemented with 100 mM DTT (agarose resin) or by incubation with 1×LDS sample buffer for 10 min at room temperature followed by taking supernatant that was supplemented with 100 mM DTT and boiling it for 10 min. Samples were subjected to SDS PAGE and Western blot analysis.
(§2) HeLa K cell pellet was re-suspended in the extraction buffer (30 mM HEPES pH 7.5, 175 mM NaCl, 2.5 mM MgCl2, 0.25% NP40, 10% glycerol, 1 mM DTT supplied with complete protease inhibitor cocktail (Roche), PhosSTOP phosphatase inhibitors (Roche), 1 mM PMSF, 10 μM MG132) and incubated for 20 min on ice, followed by centrifugation to clear the lysate for 15 min at 4° C. 16,100 g. In the meantime, inhibitor molecules containing the propargyl-Gly-OH (Pra) chemical group were covalently attached to the azide agarose resin (Jena Bioscience) by Cu(I)-catalysed azide-alkyne cycloaddition reaction. Specifically, the inhibitor molecules were mixed with azide agarose resin in ratio 0.125 μmol inhibitor/20 μl agarose resin. The reaction was catalysed by 0.1 mM CuSO4, 0.5 mM THPTA (Sigma-Aldrich) and 5 mM Sodium ascorbate and was performed on the rotating wheel for 30 min at room temperature in the volume of 1 ml. […]

RBX1 = biological target: T2, RBX1 (Homo sapiens, UniProt P62877); test: Pull-down binding assay in HeLa K cell extract, RBX1; settings: azide beads, Western blot
T2 construct: endogenous in cells; host or cells: HeLa K cell extract
T2 sequence (P62877 whole entry): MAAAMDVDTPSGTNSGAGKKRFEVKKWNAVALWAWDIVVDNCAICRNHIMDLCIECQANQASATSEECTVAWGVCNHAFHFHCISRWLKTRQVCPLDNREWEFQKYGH
Description: as §1
HeLa K cell pellet was re-suspended in the extraction buffer (30 mM HEPES pH 7.5, 175 mM NaCl, 2.5 mM MgCl2, 0.25% NP40, 10% glycerol, 1 mM DTT) supplemented with 10 μM MG132 (VWR), 1 mM PMSF (Sigma-Aldrich), complete protease inhibitor cocktail (Roche) and PhosSTOP phosphatase inhibitors (Roche) and incubated for 20 min on ice, followed by centrifugation of cell debris for 15 min at 4° C. 16 100 g. […]

BMI-1 = biological target: T3, BMI-1 (Homo sapiens, UniProt P35226); test: Pull-down binding assay in HeLa K cell extract, BMI-1; settings: azide agarose beads, Western blot
T3 construct: endogenous in cells; host or cells: HeLa K cell extract
T3 sequence (P35226 1-326): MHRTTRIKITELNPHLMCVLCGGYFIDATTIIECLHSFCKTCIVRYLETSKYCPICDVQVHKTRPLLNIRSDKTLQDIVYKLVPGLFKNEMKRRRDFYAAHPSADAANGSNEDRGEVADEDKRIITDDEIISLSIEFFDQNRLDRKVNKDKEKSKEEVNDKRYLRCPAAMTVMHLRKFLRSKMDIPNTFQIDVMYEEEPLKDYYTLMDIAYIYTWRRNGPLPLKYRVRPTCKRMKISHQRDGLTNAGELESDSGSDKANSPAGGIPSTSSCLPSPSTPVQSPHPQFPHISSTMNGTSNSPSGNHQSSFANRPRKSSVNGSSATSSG
Description: as §2, with “ml. Subsequently, the resin was washed five times with the extraction buffer. The inhibitor-agarose resin was added to 2 mg of HeLa K cell extract and incubated at 4° C. for 2 h. Afterwards, the resin was washed four times with the extraction buffer. Pull-down proteins were eluted by incubation with pre-warmed 1×LDS sample buffer for 10 min at room temperature followed by taking supernatant supplemented with 100 mM DTT and boiling for 10 min.” for “ml.”

BRCA1 = biological target: T4, BRCA1 (Homo sapiens, UniProt P38398); test: Pull-down binding assay in HeLa K cell extract, BRCA1; settings: azide agarose beads, Western blot
T4 construct: endogenous in cells; host or cells: HeLa K cell extract
T4 sequence (P38398 whole entry): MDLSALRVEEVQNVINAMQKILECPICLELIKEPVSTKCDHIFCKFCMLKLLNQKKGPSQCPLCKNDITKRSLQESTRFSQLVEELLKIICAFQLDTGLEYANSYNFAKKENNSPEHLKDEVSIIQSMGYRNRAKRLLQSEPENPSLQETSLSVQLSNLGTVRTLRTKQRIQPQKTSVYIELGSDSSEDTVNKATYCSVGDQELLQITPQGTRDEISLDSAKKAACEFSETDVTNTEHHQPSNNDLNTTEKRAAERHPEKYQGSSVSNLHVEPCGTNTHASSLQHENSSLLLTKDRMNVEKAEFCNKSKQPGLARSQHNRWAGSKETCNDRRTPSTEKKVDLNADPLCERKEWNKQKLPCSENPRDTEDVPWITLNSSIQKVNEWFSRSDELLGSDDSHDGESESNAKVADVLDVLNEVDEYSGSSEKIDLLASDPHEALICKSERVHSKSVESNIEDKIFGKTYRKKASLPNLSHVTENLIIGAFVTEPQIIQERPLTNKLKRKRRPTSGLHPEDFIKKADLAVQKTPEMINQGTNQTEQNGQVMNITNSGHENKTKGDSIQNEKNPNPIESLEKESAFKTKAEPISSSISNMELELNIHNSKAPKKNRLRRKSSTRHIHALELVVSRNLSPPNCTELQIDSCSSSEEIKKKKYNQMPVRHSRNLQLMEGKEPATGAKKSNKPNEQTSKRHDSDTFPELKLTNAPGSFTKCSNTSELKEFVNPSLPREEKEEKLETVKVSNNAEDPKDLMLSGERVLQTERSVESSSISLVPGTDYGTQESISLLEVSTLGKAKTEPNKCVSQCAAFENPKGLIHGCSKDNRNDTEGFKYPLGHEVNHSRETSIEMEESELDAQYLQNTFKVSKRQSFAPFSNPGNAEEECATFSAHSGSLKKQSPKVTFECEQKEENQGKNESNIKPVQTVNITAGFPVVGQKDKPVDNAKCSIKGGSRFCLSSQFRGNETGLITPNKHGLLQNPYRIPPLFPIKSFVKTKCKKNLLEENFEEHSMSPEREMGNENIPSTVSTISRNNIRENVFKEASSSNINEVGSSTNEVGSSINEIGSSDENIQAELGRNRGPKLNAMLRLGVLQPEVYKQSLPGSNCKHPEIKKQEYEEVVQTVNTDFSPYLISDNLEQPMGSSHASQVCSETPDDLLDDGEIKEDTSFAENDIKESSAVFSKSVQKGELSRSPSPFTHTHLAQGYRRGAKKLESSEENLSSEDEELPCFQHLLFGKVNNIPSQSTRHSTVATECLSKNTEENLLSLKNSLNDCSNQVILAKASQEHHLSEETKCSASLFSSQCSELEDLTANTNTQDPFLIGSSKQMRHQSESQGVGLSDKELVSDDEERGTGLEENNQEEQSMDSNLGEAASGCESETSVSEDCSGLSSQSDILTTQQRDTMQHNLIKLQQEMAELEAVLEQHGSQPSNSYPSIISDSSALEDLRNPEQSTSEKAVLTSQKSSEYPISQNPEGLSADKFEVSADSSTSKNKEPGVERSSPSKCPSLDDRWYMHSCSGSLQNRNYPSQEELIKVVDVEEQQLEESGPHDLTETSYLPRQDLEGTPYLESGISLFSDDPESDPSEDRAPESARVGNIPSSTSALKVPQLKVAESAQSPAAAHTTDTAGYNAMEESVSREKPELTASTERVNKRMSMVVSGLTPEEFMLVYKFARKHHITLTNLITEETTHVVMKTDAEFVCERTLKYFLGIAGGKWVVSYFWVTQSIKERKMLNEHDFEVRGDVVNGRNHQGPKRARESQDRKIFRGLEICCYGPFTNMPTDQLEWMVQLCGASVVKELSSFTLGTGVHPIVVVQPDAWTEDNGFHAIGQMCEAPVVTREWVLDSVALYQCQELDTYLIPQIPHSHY
Description: as §2, with “ml. Subsequently, the resin was washed five times with the extraction buffer. The inhibitor-agarose resin was added to 2 mg of HeLa K cell extract and incubated at 4° C. for 2 h. Afterwards, the resin was washed four times with the extraction buffer. Pull-down proteins were eluted by incubation with pre-warmed 1×LDS sample buffer for 10 min at room temperature followed by taking supernatant supplemented with 100 mM DTT and boiling for 10 min.” for “ml.”

c-CBL = biological target: T5, c-CBL (Homo sapiens, UniProt P22681); test: Pull-down binding assay in HeLa K cell extract, c-CBL; settings: azide agarose beads, Western blot
T5 construct: endogenous in cells; host or cells: HeLa K cell extract
Description: as §2, with “ml. Subsequently, the resin was washed five times with the extraction buffer. The inhibitor-agarose resin was added to 2 mg of HeLa K cell extract and incubated at 4° C. for 2 h. Afterwards, the resin was washed four times with the extraction buffer. Pull-down proteins were eluted by incubation with pre-warmed 1×LDS sample buffer for 10 min at room temperature followed by taking supernatant supplemented with 100 mM DTT and boiling for 10 min.” for “ml.”

c-IAP1 = biological target: T6, c-IAP1 (Homo sapiens, UniProt Q13490); test: Pull-down binding assay in HeLa K cell extract, c-IAP1; settings: azide agarose beads, Western blot
T6 construct: endogenous in cells; host or cells: HeLa K cell extract
T6 sequence (Q13490 whole entry): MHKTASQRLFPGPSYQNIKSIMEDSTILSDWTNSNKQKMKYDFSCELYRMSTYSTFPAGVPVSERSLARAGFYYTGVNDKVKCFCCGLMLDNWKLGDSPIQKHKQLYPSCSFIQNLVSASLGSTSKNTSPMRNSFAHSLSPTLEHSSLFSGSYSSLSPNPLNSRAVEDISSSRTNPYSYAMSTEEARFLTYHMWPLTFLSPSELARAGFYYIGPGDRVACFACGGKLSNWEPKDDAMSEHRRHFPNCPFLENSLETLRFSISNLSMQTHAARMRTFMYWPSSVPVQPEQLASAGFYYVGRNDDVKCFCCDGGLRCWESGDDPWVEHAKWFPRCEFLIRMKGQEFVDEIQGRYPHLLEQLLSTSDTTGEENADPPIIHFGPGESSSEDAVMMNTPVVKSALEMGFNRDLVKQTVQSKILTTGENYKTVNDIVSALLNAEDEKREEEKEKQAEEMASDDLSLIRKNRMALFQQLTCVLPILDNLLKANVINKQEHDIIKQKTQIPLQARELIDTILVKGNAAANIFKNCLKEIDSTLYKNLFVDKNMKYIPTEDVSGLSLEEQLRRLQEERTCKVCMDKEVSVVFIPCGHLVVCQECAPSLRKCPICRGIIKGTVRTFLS
Description: as §2, with “ml. Subsequently, the resin was washed five times with the extraction buffer. The inhibitor-agarose resin was added to 2 mg of HeLa K cell extract and incubated at 4° C. for 2 h. Afterwards, the resin was washed four times with the extraction buffer. Pull-down proteins were eluted by incubation with pre-warmed 1×LDS sample buffer for 10 min at room temperature followed by taking supernatant supplemented with 100 mM DTT and boiling for 10 min.” for “ml.”

MDM2 = biological target: T7, MDM2 (Homo sapiens, UniProt Q00987); test: Pull-down binding assay in HeLa K cell extract, MDM2; settings: azide agarose beads, Western blot
T7 construct: endogenous in cells; host or cells: HeLa K cell extract
T7 sequence (Q00987 whole entry): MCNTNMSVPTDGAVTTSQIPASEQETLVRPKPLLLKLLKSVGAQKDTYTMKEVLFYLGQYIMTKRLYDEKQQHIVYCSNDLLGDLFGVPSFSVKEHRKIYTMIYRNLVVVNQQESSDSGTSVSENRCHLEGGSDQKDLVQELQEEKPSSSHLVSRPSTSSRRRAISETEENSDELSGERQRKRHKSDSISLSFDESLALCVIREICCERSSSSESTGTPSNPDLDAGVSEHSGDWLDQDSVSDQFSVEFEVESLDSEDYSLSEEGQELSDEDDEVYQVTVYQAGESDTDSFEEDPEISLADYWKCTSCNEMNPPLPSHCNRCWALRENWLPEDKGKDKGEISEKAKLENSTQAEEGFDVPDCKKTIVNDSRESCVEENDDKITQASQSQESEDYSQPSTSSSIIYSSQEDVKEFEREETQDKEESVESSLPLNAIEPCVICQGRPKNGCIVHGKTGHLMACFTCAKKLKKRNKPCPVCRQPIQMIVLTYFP
Description: as §2, with “ml. Subsequently, the resin was washed five times with the extraction buffer. The inhibitor-agarose resin was added to 2 mg of HeLa K cell extract and incubated at 4° C. for 2 h. Afterwards, the resin was washed four times with the extraction buffer. Pull-down proteins were eluted by incubation with pre-warmed 1×LDS sample buffer for 10 min at room temperature followed by taking supernatant supplemented with 100 mM DTT and boiling for 10 min.” for “ml.”

TRAF2 = biological target: T8, TRAF2 (Homo sapiens, UniProt Q12933); test: Pull-down binding assay in HeLa K cell extract, TRAF2; settings: azide agarose beads, Western blot
T8 construct: endogenous in cells; host or cells: HeLa K cell extract
T8 sequence (Q12933 1-501): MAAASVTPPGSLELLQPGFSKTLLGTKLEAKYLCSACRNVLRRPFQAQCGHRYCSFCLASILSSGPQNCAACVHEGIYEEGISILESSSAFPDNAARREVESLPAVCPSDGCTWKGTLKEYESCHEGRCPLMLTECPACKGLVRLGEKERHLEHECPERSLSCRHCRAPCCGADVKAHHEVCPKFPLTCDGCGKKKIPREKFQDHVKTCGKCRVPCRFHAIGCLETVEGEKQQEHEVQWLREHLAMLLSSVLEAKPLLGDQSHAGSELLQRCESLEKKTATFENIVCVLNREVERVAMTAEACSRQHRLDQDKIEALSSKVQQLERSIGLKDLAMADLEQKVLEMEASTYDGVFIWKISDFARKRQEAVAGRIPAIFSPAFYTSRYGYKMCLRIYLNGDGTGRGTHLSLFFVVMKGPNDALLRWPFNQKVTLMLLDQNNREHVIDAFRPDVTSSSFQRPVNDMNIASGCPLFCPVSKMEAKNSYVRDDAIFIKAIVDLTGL
Description: as §2, with “ml. Subsequently, the resin was washed five times with the extraction buffer. The inhibitor-agarose resin was added to 2 mg of HeLa K cell extract and incubated at 4° C. for 2 h. Afterwards, the resin was washed four times with the extraction buffer. Pull-down proteins were eluted by incubation with pre-warmed 1×LDS sample buffer for 10 min at room temperature followed by taking supernatant supplemented with 100 mM DTT and boiling for 10 min.” for “ml.”

Ac-cyclo(3,12)-PraRCHWGPRTFWCR-NH2 (Ac-[Pra]RCHWGPRTFWCR-NH2; disulfide 3-12; SMILES C#CC[C@H](NC(C)=O)C(=O)N[C@@H](CCCNC(=N)N)C(=O)N[C@H]1CSSC[C@@H](C(=O)N[C@@H](CCCNC(=N)N)C(N)=O)NC(=O)[C@H](Cc2c[nH]c3ccccc23)NC(=O)[C@H](Cc2ccccc2)NC(=O)[C@H]([C@@H](C)O)NC(=O)[C@H](CCCNC(=N)N)NC(=O)[C@@H]2CCCN2C(=O)CNC(=O)[C@H](Cc2c[nH]c3ccccc23)NC(=O)[C@H](Cc2c[nH]cn2)NC1=O) [G1-3Pra]
binds: binding to the APC/C (pull-down) (APC/C (APC11)) | binding to RBX1 (pull-down) (RBX1) | binding to BMI-1 (pull-down) (BMI-1) | binding to BRCA1 (pull-down) (BRCA1) | binding to c-CBL (pull-down) (c-CBL) | binding to c-IAP1 (pull-down) (c-IAP1) | binding to MDM2 (pull-down) (MDM2) | binding to TRAF2 (pull-down) (TRAF2)
